Laboratory results taken from patent publication US11130803B2, “Isoform-selective TGFβ1 inhibitors and use thereof” (Scholar Rock, Inc., priority 2018, dated 2021).
Numbering of substitutions follows the chain as printed.

B1: Ab22: monoclonal antibody; VH SEQ ID NO: 130, VL SEQ ID NO: 15 (antibody, V domains shown)
VH: EVQLVESGGGLVQPGGSLRLSCAASGFTFGSFSMNWVRQAPGKGLEWVSYIHSDASTIYYADSVKGRFTISRDNAKNSLYLQMNSLRAEDTAVYYCARGVLDYGDMLDPWGQGTLVTVSS
VL: DIQMTQSPSSLSASVGDRVTITCQASQDITNYLNWYQQKPGKAPKLLIYDASNLETGVPSRFSGSGSGTDFTFTISSLQPEDIATYYCQQADNHPPWTFGGGTKVEIK
B2: Ab24: monoclonal antibody; VH SEQ ID NO: 132, VL SEQ ID NO: 15 (antibody, V domains shown)
VH: B1 VH with G16R, G30S, S33A, N35Y, H52S, S53P
VL: B1 VL
B3: Ab26: monoclonal antibody; VH SEQ ID NO: 134, VL SEQ ID NO: 15 (antibody, V domains shown)
VH: B1 VH with G30S, N35D, H52S, S53P, S78T
VL: B1 VL
B4: Ab31: monoclonal antibody; VH SEQ ID NO: 139, VL SEQ ID NO: 15 (antibody, V domains shown)
VH: B1 VH with G30S, N35D, H52S, S53P, S78T, G99A
VL: B1 VL
B5: Ab29: monoclonal antibody; VH SEQ ID NO: 137, VL SEQ ID NO: 15 (antibody, V domains shown)
VH: B1 VH with G16R, G30S, S33A, H52S, S53P, D62G, A97V, G99A
VL: B1 VL
B6: Ab30: monoclonal antibody; VH SEQ ID NO: 138, VL SEQ ID NO: 15 (antibody, V domains shown)
VH: B1 VH with G30S, N35D, H52S, S53P, V100T
VL: B1 VL
B7: Ab32: monoclonal antibody; VH SEQ ID NO: 140, VL SEQ ID NO: 15 (antibody, V domains shown)
VH: B1 VH with G30S, H52S, S53P, D54S, S56D, S78T, L101W, Y103M
VL: B1 VL
B8: Ab33: monoclonal antibody; VH SEQ ID NO: 141, VL SEQ ID NO: 15 (antibody, V domains shown)
VH: B1 VH with G30S, H52S, S53P, D54S, S56D, S78T, R98H
VL: B1 VL
B9: Ab11: monoclonal antibody; VH SEQ ID NO: 239, VL SEQ ID NO: 241 (antibody, V domains shown)
VH: EVQLLESGGGLVQPGGSLRLSCAASGFTFRNYAMSWVRQAPGKGLEWVSSISGSGGATYYADSVKGRFTISRDNSKNTLYLQMNSLRAEDTAVYYCARVSSGHWDFDYWGQGTLVTVSS
VL: DIQLTQSPSSLSASVGDRVTITCRASQSISSYLNWYQQKPGKAPKLLIYAASNLQSGVPSRFSGSGSGTDFTLTISSLQPEDFATYYCQQTYTVPLTFGGGTKVEIK
B10: Ab12: monoclonal antibody; VH SEQ ID NO: 237, VL SEQ ID NO: 241 (antibody, V domains shown)
VH: B9 VH with E1Q, L5V, L11V, G16R, R30S, N31D, S35V, S50A, G56F, A57T
VL: B9 VL
B11: Ab20: monoclonal antibody; VH SEQ ID NO: 251, VL SEQ ID NO: 241 (antibody, V domains shown)
VH: B9 VH with R30S, N31A, S35T, S50A, A57V, F106Y
VL: B9 VL

Target: T1, recombinant human LTBP3-proTGFβ1 complex (Homo sapiens, UniProt P01137)
T1 construct: made in house; host or cells: Expi293F cells, transient co-transfection
Test: Octet (Biolayer Interferometry) in vitro kinetic binding
Conditions: in M
Description: (§1) Biolayer Interferometry (BLI):BLI is a label-free technology for optically measuring biomolecular interactions, e.g., between a ligand immobilized on the biosensor tip surface and an analyte in solution. BLI provides the ability to monitor binding specificity, rates of association and dissociation, or concentration, with precision and accuracy. BLI platform instruments are commercially available, for example, from ForteBio and are commonly referred to as the Octet® System.
(§2) BLI-based binding assays are widely used in the art for measuring affinities and kinetics of antibodies to antigens. It is a label-free technology in which biomolecular interactions are analyzed on the basis of optical interference. One of the proteins, for example, an antibody being tested, can be immobilized on the biosensor tip. When the other protein in solution, for example, an antigen, becomes bound to the immobilized antibody, it causes a shift in the interference pattern, which can be measured in real-time. This allows the monitoring of binding specificity, rates of association and dissociation, as well as concentration dependency. […] Due to its ease of use and fast results, BLI-based assays such as the Octet® system (available from ForteBio/Molecular Devices, Fremont Calif.), are particularly convenient when used as an initial screening method to identify and separate a pool of “binders” from a pool of “non-binders” or “weak binders” in the screening process.
(§3) Table 8 below provides non-limiting examples of high-affinity, context-independent proTGFβ1 antibodies encompassed by the present invention. The table provides representative results from in vitro binding assays, as measured by Octet®.
(§4) Column (A) of the table lists monoclonal antibodies with discrete amino acid sequences. […] Columns (B), (D), (E) and (F) provide affinities of each of the listed antibodies, measured in KD. […] Average KD values of (B) and (C) are shown in the corresponding column (D), which collectively represents affinities of the antibodies to ECM- or matrix-associated proTGFβ1 complexes. Similarly, Average KD values of (E) and (F) are shown in the corresponding column (G), which collectively represents affinities of the antibodies to cell-surface or cell-associated proTGFβ1 complexes. Finally, relative ratios between the average KD values from columns (D) and (G) are expressed as “fold bias” in column (H). Thus, the greater the number of column (H) is, the greater bias exists for the particular antibody, when comparing binding preferences of the antibody for matrix-associated complexes and cell-surface complexes. This is one way of quantitatively representing and comparing inherent bias of antibodies to their target complexes. Such analyses may be useful in guiding the selection process for a candidate antibody for particular therapeutic use.
(§5) In some embodiments, the binding affinity of an antibody, or antigen binding portion thereof, to an antigen (e.g., protein complex), such as presenting molecule-proTGFβ1 complexes, is determined using an Octet assay. In some embodiments, an Octet assay is an assay that determines one or more a kinetic parameters indicative of binding between an antibody and antigen. In some embodiments, an Octet® system (ForteBio, Menlo Park, Calif.) is used to determine the binding affinity of an antibody, or antigen binding portion thereof, to presenting molecule-proTGFβ1 complexes. For example, binding affinities of antibodies may be determined using the fortéBio Octet QKe dip and read label free assay system utilizing bio-layer interferometry. In some embodiments, antigens are immobilized to biosensors (e.g., streptavidin-coated biosensors) and the antibodies and complexes (e.g., biotinylated presenting molecule-proTGFβ1 complexes) are presented in solution at high concentration ([…]) to measure binding interactions. […]

T1 sequence (P01137 30-390): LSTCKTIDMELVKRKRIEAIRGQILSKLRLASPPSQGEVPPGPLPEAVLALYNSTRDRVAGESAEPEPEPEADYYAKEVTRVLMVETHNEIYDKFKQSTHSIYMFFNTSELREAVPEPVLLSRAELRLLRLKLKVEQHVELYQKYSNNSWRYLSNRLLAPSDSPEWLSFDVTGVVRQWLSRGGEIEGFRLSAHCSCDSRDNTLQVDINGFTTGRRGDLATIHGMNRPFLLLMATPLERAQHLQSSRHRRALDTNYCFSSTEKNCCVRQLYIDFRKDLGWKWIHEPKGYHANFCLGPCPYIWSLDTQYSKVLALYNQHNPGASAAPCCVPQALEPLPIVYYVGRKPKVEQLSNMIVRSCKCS
T1 sequence (Q9NS15 866-1039 partner limits assumed): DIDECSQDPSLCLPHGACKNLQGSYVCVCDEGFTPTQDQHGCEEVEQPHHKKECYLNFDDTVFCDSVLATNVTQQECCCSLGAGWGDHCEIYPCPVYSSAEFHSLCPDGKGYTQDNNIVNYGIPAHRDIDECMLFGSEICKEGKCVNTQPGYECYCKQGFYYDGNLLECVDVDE

(C) hLTBP3, Matrix-associated proTGFb1 (KD) | Molecule
3.29E−10 | B1
1.98E−10 | B2
1.73E−10 | B3
1.81E−10 | B4
1.21E−10 | B5
2.61E−10 | B6
2.15E−10 | B7
1.11E−10 | B8
1.54E−10 | B9
1.83E−10 | B10
1.31E−10 | B11

Target: T2, recombinant human GARP-proTGFβ1 complex (Homo sapiens, UniProt P01137)
T2 construct: made in house
Test: as above
Conditions: in M
Description: as §1, §2, §3, §4, §5

T2 sequence (P01137 30-390): as the sequence (P01137 30-390) above
T2 sequence (Q14392 20-627 partner limits assumed): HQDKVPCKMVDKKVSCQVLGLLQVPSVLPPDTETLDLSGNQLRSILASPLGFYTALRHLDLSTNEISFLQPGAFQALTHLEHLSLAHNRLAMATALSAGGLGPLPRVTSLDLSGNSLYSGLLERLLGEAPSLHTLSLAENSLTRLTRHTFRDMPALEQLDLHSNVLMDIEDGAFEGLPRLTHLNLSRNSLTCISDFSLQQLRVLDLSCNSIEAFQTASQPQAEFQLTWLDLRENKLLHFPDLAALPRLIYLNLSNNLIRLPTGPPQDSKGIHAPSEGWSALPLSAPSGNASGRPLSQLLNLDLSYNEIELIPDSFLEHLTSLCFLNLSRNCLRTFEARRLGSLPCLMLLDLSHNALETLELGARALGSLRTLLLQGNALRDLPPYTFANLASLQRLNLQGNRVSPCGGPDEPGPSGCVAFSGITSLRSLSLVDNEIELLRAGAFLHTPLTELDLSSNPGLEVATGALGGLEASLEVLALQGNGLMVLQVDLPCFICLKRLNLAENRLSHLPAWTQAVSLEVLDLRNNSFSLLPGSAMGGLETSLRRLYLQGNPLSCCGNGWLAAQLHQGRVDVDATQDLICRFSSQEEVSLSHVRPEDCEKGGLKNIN

(E) hGARP, Cell-associated proTGFb1 (KD) | Molecule
9.74E−10 | B1
6.65E−10 | B2
6.25E−10 | B3
5.81E−10 | B4
3.07E−10 | B5
8.33E−10 | B6
4.96E−10 | B7
2.65E−10 | B8
8.42E−10 | B9
7.01E−09 | B10
8.84E−10 | B11

Target: T3, recombinant human LTBP1-proTGFβ1 complex (Homo sapiens, UniProt P01137)
T3 construct: made in house; host or cells: Expi293F cells, transient co-transfection
Test: as above
Conditions: in M
Description: as §1, §2, §3, §4, §5

T3 sequence (P01137 30-390): as the sequence (P01137 30-390) above
T3 sequence (Q14766 873-1507 partner): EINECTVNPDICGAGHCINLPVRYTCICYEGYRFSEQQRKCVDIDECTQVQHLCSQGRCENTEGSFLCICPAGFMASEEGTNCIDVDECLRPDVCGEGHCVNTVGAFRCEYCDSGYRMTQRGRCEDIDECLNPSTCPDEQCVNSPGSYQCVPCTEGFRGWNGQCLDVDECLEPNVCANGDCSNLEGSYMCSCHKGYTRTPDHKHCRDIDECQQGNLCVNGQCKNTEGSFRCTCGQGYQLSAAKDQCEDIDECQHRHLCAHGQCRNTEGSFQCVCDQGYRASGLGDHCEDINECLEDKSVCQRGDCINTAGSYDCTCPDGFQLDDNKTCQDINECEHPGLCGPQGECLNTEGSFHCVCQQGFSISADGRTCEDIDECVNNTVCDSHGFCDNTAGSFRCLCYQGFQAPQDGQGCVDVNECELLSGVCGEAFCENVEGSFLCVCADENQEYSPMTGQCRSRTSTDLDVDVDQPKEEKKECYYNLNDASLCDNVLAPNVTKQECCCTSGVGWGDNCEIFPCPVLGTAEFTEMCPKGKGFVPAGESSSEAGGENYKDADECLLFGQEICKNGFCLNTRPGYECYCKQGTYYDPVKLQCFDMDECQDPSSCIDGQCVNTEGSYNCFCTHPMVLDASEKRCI

(B) hLTBP1, Matrix-associated proTGFb1 (KD) | Molecule
3.18E−10 | B1
2.46E−10 | B2
2.21E−10 | B3
2.36E−10 | B4
1.89E−10 | B5
3.32E−10 | B6
2.69E−10 | B7
1.79E−10 | B8
1.67E−10 | B9
1.57E−10 | B10
1.92E−10 | B11

Target: T4, recombinant human LRRC33-proTGFβ1 complex (Homo sapiens, UniProt P01137)
T4 construct: made in house
Test: as above
Conditions: in M
Description: as §1, §2, §3, §4, §5

T4 sequence (P01137 30-390): as the sequence (P01137 30-390) above
T4 sequence (Q86YC3 19-650 partner limits assumed): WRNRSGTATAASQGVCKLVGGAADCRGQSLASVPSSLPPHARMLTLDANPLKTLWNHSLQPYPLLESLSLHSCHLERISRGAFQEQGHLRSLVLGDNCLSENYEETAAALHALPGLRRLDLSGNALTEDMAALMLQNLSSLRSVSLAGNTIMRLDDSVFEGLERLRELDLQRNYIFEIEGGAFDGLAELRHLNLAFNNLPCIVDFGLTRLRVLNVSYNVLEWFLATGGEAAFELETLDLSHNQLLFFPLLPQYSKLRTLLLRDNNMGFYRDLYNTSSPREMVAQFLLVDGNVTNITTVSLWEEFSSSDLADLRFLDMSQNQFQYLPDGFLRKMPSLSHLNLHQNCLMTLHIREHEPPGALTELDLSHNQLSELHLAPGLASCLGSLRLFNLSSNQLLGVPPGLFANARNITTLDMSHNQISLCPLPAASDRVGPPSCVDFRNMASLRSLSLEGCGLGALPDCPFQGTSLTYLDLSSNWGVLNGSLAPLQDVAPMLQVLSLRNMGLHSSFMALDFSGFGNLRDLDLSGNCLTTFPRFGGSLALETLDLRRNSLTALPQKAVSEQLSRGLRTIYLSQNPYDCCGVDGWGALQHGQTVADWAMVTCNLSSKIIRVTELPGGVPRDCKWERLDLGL

(F) hLRRC33, Cell-associated proTGFb1 (KD) | Molecule
4.15E−10 | B1
4.10E−10 | B2
3.60E−10 | B3
4.10E−10 | B4
3.02E−10 | B5
5.35E−10 | B6
6.98E−10 | B7
3.39E−10 | B8
5.55E−10 | B9
7.75E−10 | B10
5.45E−10 | B11

Test system: matrix-associated (LTBP1/LTBP3) and cell-associated (GARP/LRRC33) proTGFβ1 complexes
Test: Octet: average KD and fold bias, matrix- vs cell-associated complexes
Format: binding, human
Conditions: average KD of (E) and (F), cell-associated complexes, read-out: (G) Cell AVRG
Description: Column (A) of the table lists monoclonal antibodies with discrete amino acid sequences. […] Columns (B), (D), (E) and (F) provide affinities of each of the listed antibodies, measured in KD. […] Average KD values of (B) and (C) are shown in the corresponding column (D), which collectively represents affinities of the antibodies to ECM- or matrix-associated proTGFβ1 complexes. Similarly, Average KD values of (E) and (F) are shown in the corresponding column (G), which collectively represents affinities of the antibodies to cell-surface or cell-associated proTGFβ1 complexes. Finally, relative ratios between the average KD values from columns (D) and (G) are expressed as “fold bias” in column (H). […] This is one way of quantitatively representing and comparing inherent bias of antibodies to their target complexes.
Average KD values between the two matrix-associated and cell-associated complexes are calculated, respectively (see columns (D) and (G)). These average KD values can then be used to ask whether bias in binding activities exists between complexes associated with matrix vs. complexes associated with cell surface (e.g., immune cells). Bias may be expressed as “fold-difference” in the average KD values, as illustrated in Table 8.

Molecule | Kd
B1 | 0.695 nM
B2 | 0.537 nM
B3 | 0.492 nM
B4 | 0.495 nM
B5 | 0.304 nM
B6 | 0.684 nM
B7 | 0.597 nM
B8 | 0.302 nM
B9 | 0.699 nM
B10 | 3.89 nM
B11 | 0.715 nM

Same assay, conditions: ratio of average KD cell-associated / matrix-associated

Molecule | (H) G/D (fold bias)
B1 | 2.147 fold
B2 | 2.421 fold
B3 | 2.500 fold
B4 | 2.376 fold
B5 | 1.965 fold
B6 | 2.307 fold
B7 | 2.467 fold
B8 | 2.083 fold
B9 | 4.352 fold
B10 | 22.897 fold
B11 | 4.424 fold
